Here are results for one molecule from patent US20230257435A1, “Wound Healing Composition and Uses Thereof” (AGENCY FOR SCIENCE, TECHNOLOGY AND RESEARCH, priority 2020, published 2023).

Test [1] has as its system primary mouse keratinocytes. Kind of test: BrDu proliferation assay of mouse keratinocytes. The class given is cell-based. Particulars: increasing concentrations of sAgrin. How it is done:
(a) The protein sequence of the C-terminal Agrin fragment used as bio-additive. Gel-filtration profile of purified sAgrin. The recombinant sAgrin were tested in a Coomassie stained gel and by Western blot using an Agrin antibody. (b) BrDu proliferation assay of mouse keratinocytes cells treated with increasing concentrations of sAgrin for the indicated days (n=3 experiments, Students ‘t’ test, **p=0.001 and *p=0.01, respectively). (c) HaCaT/mouse keratinocytes cells treated with increasing doses of sAgrin were subjected to scratch wound assay. Representative bright-field images are shown at indicated times post-wounding. Scale bar: 20 μm. The resulting uncovered wound area presented as mean+/−s.d. was quantified using ImageJ (n=3, Students ‘t’ test, *p<0.01). (d) Untreated or sAgrin (10 μg/ml) HaCaT cells were scratched and allowed to migrate for 4 h. […] The relative diameter of wounds presented as mean+/−s.d. was measured on indicated days and represented graphically from one experiment (n=3 mice per group, One-way ANOVA, *p<0.04, **p<0.004, respectively). […] The degree of proliferating cells were quantified using ImageJ (n=3 sections analyzed from two independent mice wounds, Students ‘t’ tests, *p=0.01). […] The quantification of individual types of collagen fibers were done using ImageJ (n=3 sections analyzed per group, Students ‘t’ test, *p=0.01 and 0.05, respectively).

The test system of test [2] is human skin explants. The test is described as follows: Human skin explant (EPIDERM-FT) punch wound healing. It counts as cell-based. Particulars: explants treated with Agrin siRNA #1; 20 μg sAgrin in ointment on days 2, 4, 6. The source says:
Human epidermal keratinocyte cell line HaCaT was maintained in Dulbecco's modified Eagle's Medium (DMEM) (Gibco) containing 10% fetal bovine serum (FBS) with Penicillin and Streptomycin (Gibco Cat #15140148) antibiotics. The human foreskin normal fibroblasts (BJ) obtained from ATCC (ATCC® CRL-2522™) were passaged in DMEM (Gibco) with antibiotics. Normal primary adult epidermal keratinocytes (HEK) purchased from CELL Applications, Inc., (Cat #C-12003) were maintained in manufacturer provided keratinocyte growth medium as recommended. Primary keratinocytes from C57BL mouse strain were purchased from CellBiologics (Cat #C57-6066K) and maintained as per manufacturer recommended Epithelial cell growth medium (Cat #M6621, CellBiologics). The mouse primary dermal fibroblasts were isolated from C57BL mouse strain (Cat #m-GFP-6067), and cultured in complete fibroblast medium (CellBiologics, Cat #M2267). […]
Human skin equivalents and mice skin tissues were harvested, embedded, and subjected to routine histology using Hematoxylin and Eosin. […] Quantification of collagen as a marker for ECM deposition was done by picrosirius red staining of paraffin embedded mouse skin tissues, as per previously published protocol.

B1: sAgrin: C-terminus recombinant Agrin fragment containing 8 amino acid 'Z8' insert and LG3 domain (SEQ ID NO: 7), His-tagged, expressed in E. coli (protein)
chain: DTLAFDGRTFVEYLNAVTESELANEIPVEKALQSNHFELSLRTEATQGLVLWSGKATERADYVALAIVDGHLQLSYNLGSQPVVLRSTVPVNTNRWLRVVAHREQREGSLQVGNEAPVTGSSPLGATQLDTDGALWLGGLPELPVGPALPKAYGTGFVGCLRDVVVGRHPLHLLEDAVTKPELRPCPTP
modifications: His tag
With B1, in test [1], the “proliferation (BrDu incorporation)” value is reported as “supported the proliferation of primary mouse keratinocytes”. The “wound healing and migration of keratinocytes (rescue)” value in test [2] is “significantly rescued the wound healing and the migration of keratinocytes”.
